Eight molecules from patent US20260250421A1 (BIOCYTOGEN PHARMACEUTICALS BEIJING, published 2026) can be followed below.

The target of assay [1] is T1, His-tagged human PTK7 protein (human, UniProt Q13308 31-704).
T1 construct: Bought protein; also called hPTK7-His; not shown: His tag
T1 sequence: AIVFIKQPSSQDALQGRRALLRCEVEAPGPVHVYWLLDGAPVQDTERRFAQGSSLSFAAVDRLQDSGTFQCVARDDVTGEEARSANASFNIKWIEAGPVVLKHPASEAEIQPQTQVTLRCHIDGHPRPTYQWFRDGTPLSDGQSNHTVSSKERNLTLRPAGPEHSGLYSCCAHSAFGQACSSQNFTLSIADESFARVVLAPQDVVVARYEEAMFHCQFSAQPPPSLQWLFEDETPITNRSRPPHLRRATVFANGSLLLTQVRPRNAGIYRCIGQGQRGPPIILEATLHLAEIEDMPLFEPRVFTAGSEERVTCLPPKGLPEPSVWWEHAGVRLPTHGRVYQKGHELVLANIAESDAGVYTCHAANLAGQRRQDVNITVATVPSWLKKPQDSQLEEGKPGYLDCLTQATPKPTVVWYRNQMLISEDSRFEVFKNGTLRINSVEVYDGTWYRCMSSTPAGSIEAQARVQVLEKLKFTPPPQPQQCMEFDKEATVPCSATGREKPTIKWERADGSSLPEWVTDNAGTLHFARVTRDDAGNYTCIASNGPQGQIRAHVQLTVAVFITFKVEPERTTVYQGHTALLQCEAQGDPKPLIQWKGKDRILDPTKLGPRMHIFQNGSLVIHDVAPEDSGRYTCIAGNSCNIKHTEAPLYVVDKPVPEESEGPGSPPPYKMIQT
The assay can be described thus: BLI Octet binning on hPTK7-His; competitor 1A11. Here is the method: (§1) Relative positions of target protein epitope between a pair of purified anti-PTK7 antibodies were analyzed by Biolayer Interferometry (BLI) using ForteBio Octet system at 30° C. A total of […] purified antibodies were used: 1A7, 1A11, 1F2, 2A5, 2D11, 2F5, 3C4 and 3E6.
(§2) 1×HBS-EP+ buffer (10 mM 4-(2-hydroxyethyl)-1-piperazineethanesulfonic acid (HEPES), 150 mM NaCl, 3 mM ethylenediaminetetraacetic acid (EDTA) and 0.05% P20, pH7.4) diluted from HBS-EP+ buffer (10×) was used as the running buffer throughout the experiment. His-tagged human PTK7 protein was captured at a flow rate of 10 μL/min, and 200 nM of antibody (Analyte 1) was injected at a flow rate of 30 μL/min to bind the ligand. Another antibody (Analyte 2) was injected under the same conditions to determine whether the binding of different antibodies interfered with each other. The binding time was 300 s for each antibody.
(§3) The binding value of each antibody was obtained using Data Analysis HT 12.0. To quantify the interference of one antibody binding to another, a binding ratio was calculated to compare each pair of antibodies. The binding ratio is defined as the binding value of the second antibody (Analyte 2), divided by the binding value of the first antibody (Analyte 1). […] In general, antibody pairs that interfere with each other have the same or overlapping epitopes.
In general terms: Biolayer interferometry detects binding as a change in optical thickness at a sensor tip.

The target of assay [2] is T1, His-tagged human PTK7 protein. As to the kind of experiment: BLI Octet binning on hPTK7-His; competitor 2F5. Here is the method: as §1, §2, §3
The target is the same in assay [3]. The assay can be described thus: BLI Octet binning on hPTK7-His; competitor 1F2. As for the experimental part:
as §1, §2, §3

For assay [4] the target is unchanged. As to the kind of experiment: BLI Octet binning on hPTK7-His; competitor 3E6. As for the experimental part: as §1, §2, §3
Assay [5] addresses T2, human PTK7 on human cancer cell lines (human, UniProt Q13308 31-1070).
T2 construct: Endogenous PTK7 of human tumour cell lines; also called PTK7 on A-431, NCI-H520, NCI-N87, SK-OV-3, BT-20, HCC1954, NCI-H226, NCI-H358, HCT116, PC-3, NCI-H292, NCI-H1975 cells
T2 sequence: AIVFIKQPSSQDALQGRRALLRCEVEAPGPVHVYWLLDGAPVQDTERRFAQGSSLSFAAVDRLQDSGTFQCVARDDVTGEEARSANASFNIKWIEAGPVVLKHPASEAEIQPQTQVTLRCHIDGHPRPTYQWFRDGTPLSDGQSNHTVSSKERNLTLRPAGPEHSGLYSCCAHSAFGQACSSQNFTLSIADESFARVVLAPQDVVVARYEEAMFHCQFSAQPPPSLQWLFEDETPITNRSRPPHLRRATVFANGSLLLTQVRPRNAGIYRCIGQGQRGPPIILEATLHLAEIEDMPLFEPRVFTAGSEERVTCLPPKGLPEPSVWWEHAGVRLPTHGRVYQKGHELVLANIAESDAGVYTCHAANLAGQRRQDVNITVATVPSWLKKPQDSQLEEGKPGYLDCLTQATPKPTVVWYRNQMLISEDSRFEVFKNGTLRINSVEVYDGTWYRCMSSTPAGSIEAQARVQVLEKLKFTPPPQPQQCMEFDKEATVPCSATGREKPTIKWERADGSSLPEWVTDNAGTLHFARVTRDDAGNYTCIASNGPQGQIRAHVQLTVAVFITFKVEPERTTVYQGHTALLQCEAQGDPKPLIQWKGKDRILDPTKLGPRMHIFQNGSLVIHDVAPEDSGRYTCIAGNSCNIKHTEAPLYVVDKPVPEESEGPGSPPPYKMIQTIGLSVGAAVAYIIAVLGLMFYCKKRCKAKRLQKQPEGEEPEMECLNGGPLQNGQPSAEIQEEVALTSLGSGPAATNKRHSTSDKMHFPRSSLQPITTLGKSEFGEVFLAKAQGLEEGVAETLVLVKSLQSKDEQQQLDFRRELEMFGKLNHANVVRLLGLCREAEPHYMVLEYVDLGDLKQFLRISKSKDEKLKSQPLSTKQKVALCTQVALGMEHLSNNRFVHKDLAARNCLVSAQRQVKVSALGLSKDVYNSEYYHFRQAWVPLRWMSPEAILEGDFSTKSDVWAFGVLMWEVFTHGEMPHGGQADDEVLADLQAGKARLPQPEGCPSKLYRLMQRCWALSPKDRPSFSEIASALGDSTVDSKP
The assay can be described thus: flow cytometry, NCI-H358 cells, Ab 5 ug/mL. As for the experimental part:
(§4) The binding activity of anti-PTK7 antibodies to cancer cell lines was verified by flow cytometry. […] Purified anti-PTK7 antibody with a concentration of 5 μg/mL was added to each well and was incubated at 4° C. for 30 minutes. […] The cells were collected, and the mean fluorescence intensity (MFI) was determined. Human IgG1 was used as ISO control.

The target of assay [6] is T2, human PTK7 on human cancer cell lines. As to the kind of experiment: flow cytometry, PC-3 cells, Ab 5 ug/mL. As for the experimental part:
as §4
In general terms: Flow cytometry measures light scatter and fluorescence of single cells or particles in a stream.

Substitutions are numbered along the chain they refer to.

B1: 1A7 (antibody, human IgG1, V domains shown)
VH: QVQLVESGGGVVQPGRSLRLSCAASGFTFSNYGMHWVRQAPGKGLEWVAVIYYDGSNKFYADSVKGRFTISRDNSKNTLYLQMSSLRAEDTAVYYCARDVAPPGSRAEYFHHWGQGTLVTVSS
VL: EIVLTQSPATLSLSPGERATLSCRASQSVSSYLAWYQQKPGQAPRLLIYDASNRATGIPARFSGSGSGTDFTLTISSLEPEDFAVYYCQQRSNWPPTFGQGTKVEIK
notes: also called anti-PTK7 antibody 1A7
For the molecule B1, the binding ratio amounted to 0.74 in assay [1], 0.07 in assay [2], 0.84 in assay [3] and 1.05 in assay [4]. Also, the figures for the MFI in assay [5] and in assay [6] were 52900 and 32500, respectively.

B2: 2F5 (antibody, V domains shown)
VH: B1 VH with A23V, V50I, F59Y, S84N, P102A, P103A, F110L
VL: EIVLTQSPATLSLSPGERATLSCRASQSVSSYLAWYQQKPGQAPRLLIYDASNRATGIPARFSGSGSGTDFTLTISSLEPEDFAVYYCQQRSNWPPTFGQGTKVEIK
notes: also called anti-PTK7 antibody 2F5
As to B2, the binding ratio in assay [1] came out at 0.71; in assay [2], 0.08; in assay [3] it was 0.85; in assay [4], 1.02. For the same molecule, the figures for the MFI in assay [5] and in assay [6] were 51900 and 32400, respectively.

B3: 2A5 (antibody, V domains shown)
VH: B1 VH with E6Q, Y52W, S56R, F59Y, S84N, P103A, H111Q, H112N
VL: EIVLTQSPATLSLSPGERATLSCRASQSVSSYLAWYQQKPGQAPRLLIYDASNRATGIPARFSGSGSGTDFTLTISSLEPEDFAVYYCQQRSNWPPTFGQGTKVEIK
notes: also called anti-PTK7 antibody 2A5
In the case of B3, the binding ratio in assay [1] was 0.62; in assay [2] it was -0.02; in assay [3], 0.78; in assay [4], 0.94. Also, the MFI was 87700 in assay [5] and 60700 in assay [6].

B4: 2D11 (antibody, V domains shown)
VH: B1 VH with N31S, Y52F, F59Y, S84N, A92S, P102A, H111Q, H112N
VL: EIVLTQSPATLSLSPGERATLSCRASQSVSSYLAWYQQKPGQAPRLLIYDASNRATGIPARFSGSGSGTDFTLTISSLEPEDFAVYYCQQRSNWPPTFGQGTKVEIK
notes: also called anti-PTK7 antibody 2D11
Regarding B4, the binding ratio in assay [1] came out at 0.83; in assay [2], 0.14; in assay [3], 0.93; in assay [4] it was 1.18. Besides, the MFI came out at 103000 in assay [5] and 73000 in assay [6].

B5: 1F2 (antibody, V domains shown)
VH: QVQLVQSGGGLVQPGGSLRLSCAASGFTFSRYEMNWVRQAPGKGLEWVSYINSIGSAINYADSVKGRFTISRDNAKNSLYLQMRSLRAEDTAVYYCVREDNWNPGYWGQGTLVTVSS
VL: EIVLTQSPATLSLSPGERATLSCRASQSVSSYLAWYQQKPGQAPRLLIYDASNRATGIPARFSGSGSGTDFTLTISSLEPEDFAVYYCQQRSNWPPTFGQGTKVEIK
notes: also called anti-PTK7 antibody 1F2
Consider B5, for which the binding ratio in assay [1] amounted to 0.64; in assay [2], 0.56; in assay [3], 0.03; in assay [4], 0.75. Also, the values for the MFI in assay [5] and in assay [6] were 33900 and 34900, respectively.

B6: 3C4 (antibody, V domains shown)
VH: QVQLEQSRAEVKKPGESLRISCKGSGYSFTSYWISWVRQMPGKGLEWMGRIDPSDSYTNYNPSFQGHVTISADKSISTAYLQWSSLKASDTAMYYCARRDGSYFDFDYWGQGTLVTVSS
VL: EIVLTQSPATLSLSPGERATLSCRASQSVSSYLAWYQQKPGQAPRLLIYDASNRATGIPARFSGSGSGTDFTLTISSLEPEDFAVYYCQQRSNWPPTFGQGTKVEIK
notes: also called anti-PTK7 antibody 3C4
Turning to B6, the binding ratio was found to be 0.84 in assay [1], 0.86 in assay [2], 0.9 in assay [3] and 0.17 in assay [4]. Also, the MFI in assay [5] was 98800; in assay [6], 66700.

B7: 3E6 (antibody, V domains shown)
VH: B6 VH with E5V, Q6E, R8G, K23R, N59K, N61S, S102D
VL: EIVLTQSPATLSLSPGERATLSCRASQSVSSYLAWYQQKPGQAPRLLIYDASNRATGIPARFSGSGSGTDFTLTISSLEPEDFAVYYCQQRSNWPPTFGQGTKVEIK
notes: also called anti-PTK7 antibody 3E6
Consider B7, for which the binding ratio in assay [1] was determined as 0.71; in assay [2] it was 0.71; in assay [3] it was 0.74; in assay [4], 0.08. The MFI in assay [5] was 117000; in assay [6] it was 94600.

B8: 1A11 (antibody, V domains shown)
VH: QVQLVQSGPGLVKPSETLSLTCTVSGGSINSYYWNWIRQPPGKGLEWIGYIYYSGSTNYNPSLKSRVTISVDTSKNQFSLKLSSVTAADTAVYYCARDPHDYIRGHFDLWGRGTLFTVSS
VL: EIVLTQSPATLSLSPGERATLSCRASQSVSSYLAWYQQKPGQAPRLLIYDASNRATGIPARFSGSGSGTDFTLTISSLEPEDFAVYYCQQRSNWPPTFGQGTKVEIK
notes: also called anti-PTK7 antibody 1A11
As to B8, the binding ratio in assay [1] was -0.01; in assay [2], 0.67; in assay [3] it was 0.86; in assay [4] it was 0.94. For the same molecule, the MFI in assay [5] amounted to 89400; in assay [6], 67200.
